Laboratory results: patent US9688764B2, “Methods of treating breast cancer by administering anti-human prolactin receptor (PRLR) antibodies” (REGENERON PHARMACEUTICALS, INC., priority 2013, dated 2017)

T1: T47D (native PRLR expressing cell line) (Homo sapiens, UniProt P16471)
T1 construct: a native PRLR expressing cell line (T47D); endogenous in cells; host or cells: T47D
T1 sequence (P16471 25-622): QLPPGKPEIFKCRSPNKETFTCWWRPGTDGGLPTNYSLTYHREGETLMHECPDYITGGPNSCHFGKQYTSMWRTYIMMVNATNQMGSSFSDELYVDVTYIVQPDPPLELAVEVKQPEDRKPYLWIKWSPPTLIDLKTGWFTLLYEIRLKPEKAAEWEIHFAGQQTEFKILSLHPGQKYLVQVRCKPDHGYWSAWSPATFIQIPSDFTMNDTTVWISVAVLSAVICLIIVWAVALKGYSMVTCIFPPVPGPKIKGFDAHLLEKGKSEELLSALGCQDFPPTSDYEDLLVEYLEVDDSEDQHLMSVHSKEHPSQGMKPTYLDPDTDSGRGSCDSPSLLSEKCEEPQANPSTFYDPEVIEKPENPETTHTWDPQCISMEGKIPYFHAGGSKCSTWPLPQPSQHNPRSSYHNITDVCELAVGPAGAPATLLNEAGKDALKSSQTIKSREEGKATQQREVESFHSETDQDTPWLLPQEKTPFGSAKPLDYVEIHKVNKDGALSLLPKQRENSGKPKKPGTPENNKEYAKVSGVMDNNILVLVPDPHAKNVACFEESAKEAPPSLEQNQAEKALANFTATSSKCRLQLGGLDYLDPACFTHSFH

T2: HEK293/mPRLR (Mus musculus, UniProt Q08501)
T2 construct: HA; expressed in transfected cells; host or cells: HEK293
T2 sequence (Q08501 20-608): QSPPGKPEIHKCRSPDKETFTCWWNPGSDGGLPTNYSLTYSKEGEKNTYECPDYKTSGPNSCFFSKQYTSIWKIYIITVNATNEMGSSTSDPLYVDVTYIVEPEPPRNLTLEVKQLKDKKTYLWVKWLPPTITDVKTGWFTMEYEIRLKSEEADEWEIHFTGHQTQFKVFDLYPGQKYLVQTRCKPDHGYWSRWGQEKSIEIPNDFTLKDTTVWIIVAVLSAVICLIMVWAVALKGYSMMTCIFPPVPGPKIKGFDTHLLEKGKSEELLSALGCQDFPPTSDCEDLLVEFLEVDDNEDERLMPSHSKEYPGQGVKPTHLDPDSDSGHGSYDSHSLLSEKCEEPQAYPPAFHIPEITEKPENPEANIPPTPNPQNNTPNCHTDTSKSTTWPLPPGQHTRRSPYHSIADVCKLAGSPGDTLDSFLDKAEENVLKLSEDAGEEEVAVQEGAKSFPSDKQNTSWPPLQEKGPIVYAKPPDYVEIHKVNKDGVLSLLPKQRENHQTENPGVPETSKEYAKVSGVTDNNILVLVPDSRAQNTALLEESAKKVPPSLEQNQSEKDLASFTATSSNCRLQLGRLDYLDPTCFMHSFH

T3: HEK293/hPRLR (Homo sapiens, UniProt P16471)
T3 construct: HA; expressed in transfected cells; host or cells: HEK293
T3 sequence (P16471 25-622): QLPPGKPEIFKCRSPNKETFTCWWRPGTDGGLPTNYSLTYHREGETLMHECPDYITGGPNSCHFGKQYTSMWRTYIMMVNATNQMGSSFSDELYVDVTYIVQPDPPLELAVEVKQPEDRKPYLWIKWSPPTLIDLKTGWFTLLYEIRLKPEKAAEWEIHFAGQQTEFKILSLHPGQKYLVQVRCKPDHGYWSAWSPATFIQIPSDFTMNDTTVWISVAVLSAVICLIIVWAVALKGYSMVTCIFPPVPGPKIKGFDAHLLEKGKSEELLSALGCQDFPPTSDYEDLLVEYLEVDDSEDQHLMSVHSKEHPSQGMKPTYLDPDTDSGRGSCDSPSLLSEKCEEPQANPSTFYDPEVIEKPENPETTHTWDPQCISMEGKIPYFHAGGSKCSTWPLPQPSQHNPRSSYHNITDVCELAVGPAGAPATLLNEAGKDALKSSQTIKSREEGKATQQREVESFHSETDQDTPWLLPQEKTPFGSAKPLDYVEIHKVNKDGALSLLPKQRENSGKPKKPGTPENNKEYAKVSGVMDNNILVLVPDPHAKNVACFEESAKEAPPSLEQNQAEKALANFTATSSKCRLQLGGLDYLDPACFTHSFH


Legend:
[1] = target: T1, T47D (native PRLR expressing cell line); experiment: FACS cell surface binding
Method: (§1) The ability of anti-PRLR antibodies to selectively bind PRLR expressing cell lines was next determined. Human, monkey macaca fascicularis, and mouse PRLR constructs with an HA tag were stably introduced into HEK293 cells via Lipofectamine 2000-mediated transfection methodology. Transfectants (HEK293/hPRLR, HEK293/mfPRLR and HEK293/mPRLR) were selected for at least 2 weeks in complete growth media plus G418.
(§2) Cell surface expression of PRLR on 293/hPRLR cells was assessed via FACS analysis. Briefly, 1×10^5 cells were incubated with 10 μg/ml of Control antibody I, or an isotype control for 30 min on ice in antibody dilution buffer. Following two washes with antibody dilution buffer, cells were incubated with 10 μg/ml of PE conjugated anti-human secondary antibodies for 30 min on ice. Following two additional washes, samples were run on a Hypercyt® cytometer and analyzed in FORECYT™ (IntelliCyt, Albuquerque, N. Mex.). The mean fluorescence intensities (MFI) were expressed as fold change above isotype control levels (background). FACS binding confirmed that Control I selectively bound to 293/hPRLR expressing cells with MFIs that were 30 fold above background (isotype ctrl) levels and less than 2 fold binding on parental cells.
(§3) Next, the anti-PRLR antibodies of the present invention were tested via FACS for selective binding to the engineered overexpressing PRLR HEK293 cell lines, as well as to non-expressing HEK293 cells and a native PRLR expressing cell line (T47D).

[2] = test system: HEK293 (non-expressing parental cells); experiment: FACS cell surface binding
Method: as §1, §2, §3

HEK293/mPRLR = target: T2, HEK293/mPRLR; experiment: FACS cell surface binding
Method: as §1, §2, §3

HEK293/hPRLR = target: T3, HEK293/hPRLR; experiment: FACS cell surface binding
Method: as §1, §2, §3

[3] = target: T4, hPRLR.mmh (soluble monomeric human PRLR) (Homo sapiens, UniProt P16471); experiment: Surface plasmon resonance (Biacore T200), mAb-capture format; assay type: binding; conditions: antibody-capture format, analyte hPRLR.mmh
T4 construct: soluble monomeric (hPRLR.mmh); mmh (myc-myc-hexahistidine)
Method: (§4) Antibodies, expressed as human IgG1 Fc “[…]” designations), were captured onto an anti-human Fc sensor surface (mAb-capture format), and soluble monomeric (hPRLR.mmh; SEQ ID NO:401, or macaca fascicularis (mf) PRLR.mmh; SEQ ID NO:403) or dimeric (hPRLR.mFc; SEQ ID NO:402) PRLR protein was injected over the sensor surface. Measurements were conducted on a T200 Biacore instrument. Kinetic association (ka) and dissociation (kd) rate constants were determined by processing and fitting the data to a 1:1 binding model using Scrubber 2.0 curve fitting software.

[4] = target: mfPRLR.mmh (monomeric macaca fascicularis PRLR); experiment: as above; assay type: binding; conditions: antibody-capture format, analyte mfPRLR.mmh
Method: as §4

[5] = target: T5, hPRLR.mFc (soluble dimeric human PRLR) (Homo sapiens, UniProt P16471); experiment: as above; assay type: binding; conditions: antibody-capture format, analyte hPRLR.mFc
T5 construct: dimeric (hPRLR.mFc)
Method: as §4

T5 sequence (P16471 with tags, fused parts or gaps): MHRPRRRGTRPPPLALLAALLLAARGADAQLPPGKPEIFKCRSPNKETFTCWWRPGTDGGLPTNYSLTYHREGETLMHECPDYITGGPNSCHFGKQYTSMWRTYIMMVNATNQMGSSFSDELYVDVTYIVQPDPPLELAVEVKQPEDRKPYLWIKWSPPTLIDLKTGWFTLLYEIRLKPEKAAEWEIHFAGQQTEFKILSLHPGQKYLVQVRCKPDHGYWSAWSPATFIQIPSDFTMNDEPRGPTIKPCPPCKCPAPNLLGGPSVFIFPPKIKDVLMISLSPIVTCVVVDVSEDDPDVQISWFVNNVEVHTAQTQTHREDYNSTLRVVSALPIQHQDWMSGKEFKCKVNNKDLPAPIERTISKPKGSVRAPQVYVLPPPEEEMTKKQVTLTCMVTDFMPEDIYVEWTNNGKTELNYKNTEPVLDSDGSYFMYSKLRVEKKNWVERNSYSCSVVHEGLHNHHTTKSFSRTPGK
mfPRLR.mmh (monomeric macaca fascicularis PRLR), sequence (as listed by the source): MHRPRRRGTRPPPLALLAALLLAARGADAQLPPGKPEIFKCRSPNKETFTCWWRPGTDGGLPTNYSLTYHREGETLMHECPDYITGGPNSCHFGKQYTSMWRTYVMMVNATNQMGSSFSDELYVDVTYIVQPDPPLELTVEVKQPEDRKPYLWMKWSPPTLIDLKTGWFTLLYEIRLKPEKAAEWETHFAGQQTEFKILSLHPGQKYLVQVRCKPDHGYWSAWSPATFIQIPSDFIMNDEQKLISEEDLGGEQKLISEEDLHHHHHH
T4 sequence (P16471 with tags, fused parts or gaps): as the sequence (as listed by the source) above, with V105I, T139A, M154I, T187I, I236T counted along it

| Molecule | FACS Cell Binding (Fold Above Background) [1] | FACS Cell Binding (Fold Above Background) (HEK293/mPRLR) | FACS Cell Binding (Fold Above Background) (HEK293/hPRLR) | Kd ([3]; 25° C.) | T½ ([3]; 25° C.) | Kd ([3]; 37° C.) | T½ ([3]; 37° C.) | Kd ([4]; 25° C.) | Kd ([4]; 37° C.) | Kd ([5]; 25° C.) | T½ ([5]; 25° C.) | Kd ([5]; 37° C.) | T½ ([5]; 37° C.) | FACS Cell Binding (Fold Above Background) [2] | T½ ([4]; 25° C.) | T½ ([4]; 37° C.) |
| --- | --- | --- | --- | --- | --- | --- | --- | --- | --- | --- | --- | --- | --- | --- | --- | --- |
| H1H6966N: human IgG1 Fc form of H2M6966N; anti-PRLR; HCVR/LCVR SEQ ID NOs 338/346 (antibody, V domains shown, human IgG1 Fc) VH: QVQLVQSGAEVQKPGASVKVSCKVSGYTLTALSIHWVRQAPGKGLEWMGNFDPGDGETIHAQKFQGRVTMTGDTSTDTAYMELSSLRSEDTAVYYCVGVTFDYWGQGTLVTVSS VL: EIVMTQSPATLSVSPGERATLSCRASQSVASNLAWYQQKPGQAPRLLLYGASTRATGIPARFSGSGSGTEFTLTISSLQSEDFALYYCQHYNNWPLTFGGGTKVEIK | 31 Fold Above Background | 1 Fold Above Background | 29 Fold Above Background | 0.302 nM | 44.9 min | 0.607 nM | 12.0 min | 0.416 nM | 0.982 nM | 0.0439 nM | 282.9 min | 0.0672 nM | 91.3 min | 1 Fold Above Background | 35.6 min | 9.6 min |
| H1H6967N: human IgG1 Fc form of H2M6967N; anti-PRLR; HCVR/LCVR SEQ ID NOs 354/362 (antibody, V domains shown, human IgG1 Fc) VH: EVQLVESGGDLVHPGRSLRLSCAASGFPFDEYAMHWVRQVPGKGLEWVSGISWSNNNIGYADSVKGRFTISRDNAKNSLYLQMNSLRPEDTAFYYCAKSGIFDSWGQGTLVTVSS VL: EIVMTQSPATLSVSPGERATLSCRASQSVSRDLAWYQQKPGQAPRLLIHGASTRATGIPARFSGSGSGAEFTLIISSLQSEDFAVYYCQQYNNWPLTFGGGTKVEIK | 41 Fold Above Background | 2 Fold Above Background | 38 Fold Above Background | 1.35 nM | 34.8 min | 2.2 nM | 12.4 min | 3.08 nM | 4.54 nM | 0.11 nM | 259.3 min | 0.107 nM | 118.8 min | 1 Fold Above Background | 19.7 min | 7.1 min |

The next lines start with results.

| FACS Cell Binding (Fold Above Background) [1] | FACS Cell Binding (Fold Above Background) (HEK293/mPRLR) | FACS Cell Binding (Fold Above Background) (HEK293/hPRLR) | Kd ([3]; 25° C.) | T½ ([3]; 25° C.) | Kd ([3]; 37° C.) | T½ ([3]; 37° C.) | Kd ([4]; 25° C.) | Kd ([4]; 37° C.) | Kd ([5]; 25° C.) | T½ ([5]; 25° C.) | Kd ([5]; 37° C.) | T½ ([5]; 37° C.) | Molecule | FACS Cell Binding (Fold Above Background) [2] | T½ ([4]; 25° C.) | T½ ([4]; 37° C.) |
| --- | --- | --- | --- | --- | --- | --- | --- | --- | --- | --- | --- | --- | --- | --- | --- | --- |
| 37 Fold Above Background | 1 Fold Above Background | 35 Fold Above Background | 1.17 nM | 42.5 min | 3.16 nM | 8.8 min | 1.44 nM | 4.08 nM | 0.0867 nM | 315.8 min | 0.167 nM | 83.3 min | H1H6958N2: human IgG1 Fc form of H2M6958N2; anti-PRLR, receptor blocking; HCVR/LCVR SEQ ID NOs 290/298 (antibody, V domains shown, human IgG1 Fc) VH: QVQLVESGGGVVQPGRSLRLSCGASGFTFRNYGMQWVRQGPGKGLEWVTLISFDGNDKYYADSVKGRFTISRDNSKNTLFLQMNSLRTEDTAVYYCARGGDFDYWGQGTLVTVSS VL: DIQMTQSPSSLSASVGDRVTITCRASQDIRKDLGWYQQKPGKAPKRLIYAASSLHSGVPSRFSGSGSGTEFTLTISSLQPEDFATYYCLQHNSYPMYTFGQGTKLEIK | 1 Fold Above Background | 41.3 min | 8.6 min |
| 33 Fold Above Background | 1 Fold Above Background | 29 Fold Above Background | 6.74 nM | 15.8 min | 16.2 nM | 5.8 min | 6.2 nM | 14.9 nM | 0.141 nM | 324.4 min | 0.5 nM | 78.7 min | H1H6960N: human IgG1 Fc form of H2M6960N; anti-PRLR; HCVR/LCVR SEQ ID NOs 322/330 (antibody, V domains shown, human IgG1 Fc) VH: EVQLVESGGGLVKPGGSLRLSCAASGITFSSYSMNWVRQAPGKGLEWVSSISTRSSLIHYADSVKGRFTISRDNAKNSLYLQMNSLRDEDTAVYYCARWDAAAAFDYWGQGTLVIVSS VL: DIQLTQSPSFLSASVGDRVTITCWASQGISSYLAWYQQKPGKAPKLLIYVASTLQSGVPSRFSGSGSGTEFTLTISSLQPEDFATYFCQQLNSYPLTFGGGTKVEIK | 1 Fold Above Background | 19.8 min | 9.0 min |
| 9 Fold Above Background | 2 Fold Above Background | 6 Fold Above Background | 202 nM | 0.3 min | 681 nM | 0.4 min | 129 nM | 370 nM | 1.45 nM | 22.3 min | 4.51 nM | 5.0 min | H1H6959N2: human IgG1 Fc form of H2M6959N2; anti-PRLR; HCVR/LCVR SEQ ID NOs 306/314 (antibody, V domains shown, human IgG1 Fc) VH: EVQLVESGGGLVQPGRSLRLSCAASGFTFDDYAMHWVRQAPGKGLEWVSGISWHSGIIGYADSVKGRFTISRDNAKNSLYLQMNSLRTEDAALYYCAKIGSYFYFDSWGQGTLVTVSS VL: EIVLTQSPGTLSLSPGERATLSCRASQSVSSNYLAWYQQKPGQAPRLLIYGASSRATGIPDRFSGSGSGTDFTLTISRLEPEDFAVYYCQQFGSSGYTFGQGTNLEIK | 1 Fold Above Background | 0.7 min | 0.7 min |
